Each block holds one substance with its values, some of them ahead of it.
Key:
[1] = target: tissue factor (TF) antigen (UniProt P13726); assay: SPR, Fab captured on anti-penta-His surface, TF as analyte, 1:1 fit; against wild-type D3H44 Fab
[2] = target: tissue factor (TF) antigen (UniProt P13726); assay: SPR, Fab captured on anti-penta-His surface, TF as analyte, 1:1 fit
[3] = target: tissue factor (TF) antigen (UniProt P13726); assay: SPR (ProteOn XPR36), Fab captured on anti-penta-His surface, TF as analyte; reference wild-type D3H44 Fab
[4] = target: tissue factor (TF) antigen (UniProt P13726); assay: SPR (ProteOn XPR36), Fab captured on anti-penta-His surface, TF as analyte, 1:1 fit
[5] = target: tissue factor (TF) antigen (UniProt P13726); assay: SPR (ProteOn XPR36), His-tagged Fab captured on anti-penta His, TF as analyte, 1:1 fit; batch C (+)
[6] = target: tissue factor (TF) antigen (UniProt P13726); assay: SPR (ProteOn XPR36), His-tagged Fab captured on anti-penta His, TF as analyte; against wild-type D3H44 Fab; batch C (+)
[7] = target: tissue factor (TF) antigen (UniProt P13726); assay: SPR, His-captured Fab, TF as analyte, 1:1 fit
[8] = target: tissue factor (TF) antigen (UniProt P13726); assay: SPR, His-captured Fab, TF as analyte; against wild-type D3H44 Fab
[9] = target: D3H44 light chain Q124E_Q160E_T180E (Kabat) with N-terminal HA or FLAG tag; assay: LCCA, SPR read-out of light-chain tags; light-chain DNA 1:3 normalized to 1:1; competing light chain m18
[10] = target: D3H44 light chain T178R (Kabat) with N-terminal HA or FLAG tag; assay: LCCA, SPR read-out of light-chain tags; light-chain DNA 1:3 normalized to 1:1; competing light chain m17
[11] = target: tissue factor (TF) antigen (UniProt P13726); assay: SPR, ProteOn XPR36; His-tagged Fab captured on anti-penta-His, TF injected; 1:1 fit
[12] = target: tissue factor (TF) antigen (UniProt P13726); assay: SPR as for KD; reference: wild-type D3H44 Fab
[13] = target: D3H44 light chain Q124E_Q160E_T180E (Kabat) with N-terminal HA or FLAG tag; assay: LCCA, SPR read-out of light-chain tags; light-chain DNA 1:3 normalized to 1:1; competing light chain m20
[14] = target: D3H44 light chain Q124R_Q160K_T178R (Kabat) with N-terminal HA or FLAG tag; assay: LCCA, SPR read-out of light-chain tags; light-chain DNA 1:3 normalized to 1:1; competing light chain m17
[15] = target: tissue factor (TF) antigen (UniProt P13726); assay: SPR (ProteOn XPR36), Fab captured on anti-penta-His surface, TF as analyte; reference is the wild-type D3H44 Fab
[16] = target: tissue factor (TF) antigen (UniProt P13726); assay: SPR (ProteOn XPR36): His-tagged Fab captured on anti-penta-His surface, TF as analyte, 1:1 fit; batch C (+)

change in median KD compared to wild type, -(log(KD design)-log(KD wt)) [1]: -0.35
Kd [2]: 0.35 nM
Substance: D3H44 H1L1 Fab heterodimer of LCCA Set # 10549 (H1 L45P_K145T_Q179E; L1 P44F_S131K)

Change in median values of KD of h1l1 Fab heterodimer compared to wild type (-(log(KD design)-log(KD wt))) [3]: 0.07
Kd [4]: 0.13 nM
Substance: D3H44 Fab heterodimer H1 L124A / L1 V133W

change in median KD compared to wild type, -(log(KD design)-log(KD wt)) [1]: 0.09
Kd [2]: 0.13 nM
Substance: D3H44 H1L1 Fab heterodimer of LCCA Set # 9111 (H1 L124E_A125S_H172R_K228D; L1 S121K_V133G_S176R)

Kd [5]: 0.1 nM
Change in median values of KD of h1|1 Fab heterodimer compared to wild type (-(log(KD design)-log(KD wt))) [6]: 0.2
Substance: D3H44 Fab heterodimer, H1 S186R / L1 Q38E_Q124E_Q160E_T180E (H1L1 Fab of LCCA Set # 9905)

Kd [7]: 0.21 nM
Change in median values of KD compared to wild type (-(log(KD design)-log(KD wt))) [8]: -0.12 log
Substance: D3H44 Fab heterodimer H1L1 of LCCA Set # 9071 (H1 F174V; L1 S131T_S176F_T178F)

Change in median values of KD of h1l1 Fab heterodimer compared to wild type (-(log(KD design)-log(KD wt))) [3]: -0.16
Kd [4]: 0.23 nM
Substance: D3H44 Fab heterodimer H1 L124R_H172T / L1 V133G_N137K_S174R_S176D

Change in median values of KD of h1l1 Fab heterodimer compared to wild type (-(log(KD design)-log(KD wt))) [3]: 0.02
Kd [4]: 0.15 nM
Substance: D3H44 Fab heterodimer H1 L124A_S186K / L1 Q124E_V133W_T180E

Kd [5]: 0.14 nM
Change in median values of KD of h1|1 Fab heterodimer compared to wild type (-(log(KD design)-log(KD wt))) [6]: 0.07
Substance: D3H44 Fab heterodimer, H1 Q39R_S186R / L1 Q38E_Q124E_Q160E_T180E (H1L1 Fab of LCCA Set # 9828)

Kd [5]: 0.12 nM
Change in median values of KD of h1|1 Fab heterodimer compared to wild type (-(log(KD design)-log(KD wt))) [6]: 0.12
Substance: D3H44 Fab heterodimer, H1 L143E_K145T_P175C_Q179E / L1 Q124R_S162C_T178R (H1L1 Fab of LCCA Set # 9613)

H1L1:H1L2 normalized median ratio [9]: 11%
H1L1:H1L2 normalized median ratio [10]: 89%
H1L1:H1L2 normalized median scalar value ln(r1/f1) [10]: 2.1
Substance: D3H44 Fab heavy chain L143D_K145T_Q179E (Kabat) with C-terminal ABD2-His6 tag

Kd [11]: 0.3 nM
change in median KD compared to wild type, -(log(KD design)-log(KD wt)) [12]: -0.28
Substance: D3H44 Fab heterodimer, H1L1 of LCCA Set # 9568 (H1 L124W_L143F; L1 V133A_S176T_T178L)

H2L2:H2L1 normalized median ratio [9]: 78%
H2L2:H2L1 normalized median ratio [13]: 87%
H2L2:H2L1 normalized median ratio [10]: 22%
H2L2:H2L1 normalized median ratio [14]: 13%
Substance: D3H44 Fab heavy chain Q179K (Kabat) with C-terminal ABD2-His6 tag

Kd [7]: 0.19 nM
Change in median values of KD compared to wild type (-(log(KD design)-log(KD wt))) [8]: -0.09 log
Substance: D3H44 Fab heterodimer H1L1 of LCCA Set # 9099 (H1 L124A_Q179K; L1 Q124E_V133W_S176T_T178L_T180E)

Kd [11]: 0.16 nM
change in median KD compared to wild type, -(log(KD design)-log(KD wt)) [12]: -0.02
Substance: D3H44 Fab heterodimer, H1L1 of LCCA Sets # 9057, 9056 and 9055 (H1 A139G_V190A; L1 L135W_S176L)

Kd [5]: 0.11 nM
Change in median values of KD of h1|1 Fab heterodimer compared to wild type (-(log(KD design)-log(KD wt))) [6]: 0.17
Substance: D3H44 Fab heterodimer, H1 Q39R_D146G_Q179K / L1 Q38E_Q124E_Q160E_T180E (H1L1 Fab of LCCA Set # 9822)

Kd [7]: 0.17 nM
Change in median values of KD compared to wild type (-(log(KD design)-log(KD wt))) [8]: -0.02 log
Substance: D3H44 Fab heterodimer H1L1 of LCCA Set # 9062 and 9063 (H1 A139W_S188L; L1 F116A_L135V)

Change in median values of KD of h1l1 Fab heterodimer compared to wild type (-(log(KD design)-log(KD wt))) [15]: -0.15
Kd [4]: 0.22 nM
Substance: D3H44 Fab heterodimer H1L1 of LCCA set 9181 (H1 L124E_L143D_K145M; L1 Q124K_V133G_S176R_T178K)

change in median KD compared to wild type, -(log(KD design)-log(KD wt)) [1]: -0.03
Kd [2]: 0.17 nM
Substance: D3H44 H1L1 Fab heterodimer of LCCA Set # 9098 (H1 L124A_Q179K; L1 Q124E_V133W_S176T_T178E_T180E)

Kd [7]: 0.14 nM
Change in median values of KD compared to wild type (-(log(KD design)-log(KD wt))) [8]: 0.06 log
Substance: D3H44 Fab heterodimer H1L1 of LCCA Set # 9052, 9051 and 9050 (H1 A139G_F174V_V190A; L1 S131T_L135F_S176F_T178F)

Kd [7]: 0.32 nM
Change in median values of KD compared to wild type (-(log(KD design)-log(KD wt))) [8]: -0.31 log
Substance: D3H44 Fab heterodimer H1L1 of LCCA Set # 9769, 9767, 9763, 9759, 9761, 9760 and 9773 (H1 Q179K; L1 Q124E_Q160E_T180E)

Change in median values of KD of h1|1 Fab heterodimer compared to wild type (-(log(KD design)-log(KD wt))) [16]: 0.04 log units
Kd [16]: 0.14 nM
Substance: D3H44 H1L1 Fab heterodimer of LCCA set 9632 (H1 L143E_K145T_Q179D; L1 Q124R_T178R)

Change in median values of KD of h1l1 Fab heterodimer compared to wild type (-(log(KD design)-log(KD wt))) [3]: -0.27
Kd [4]: 0.29 nM
Substance: D3H44 Fab heterodimer H1 L45P_L143E_K145T_H172R / L1 P44F_Q124R_Q160K_T178R

Change in median values of KD of h1|1 Fab heterodimer compared to wild type (-(log(KD design)-log(KD wt))) [16]: 0.27 log units
Kd [16]: 0.09 nM
Substance: D3H44 H1L1 Fab heterodimer of LCCA sets 9911, 9909 and 9907 (H1 S188L; L1 WT)

Kd [7]: 0.28 nM
Change in median values of KD compared to wild type (-(log(KD design)-log(KD wt))) [8]: -0.26 log
Substance: D3H44 Fab heterodimer H1L1 of LCCA Set # 9731 (H1 L143K; L1 Q124E_V133D)

change in median KD compared to wild type, -(log(KD design)-log(KD wt)) [1]: -0.24
Kd [2]: 0.27 nM
Substance: D3H44 H1L1 Fab heterodimer of LCCA Set # 9559 (H1 L124W_L143E_K145T_Q179E; L1 Q124K_V133A_S176T_T178R)

Kd [7]: 0.28 nM
Change in median values of KD compared to wild type (-(log(KD design)-log(KD wt))) [8]: -0.25 log
Substance: D3H44 Fab heterodimer H1L1 of LCCA Set # 9732 and 9733 (H1 L143K; L1 Q124E_V133D_S176L)

change in median KD compared to wild type, -(log(KD design)-log(KD wt)) [1]: -0.09
Kd [2]: 0.2 nM
Substance: D3H44 H1L1 Fab heterodimer of LCCA Set # 9740 (H1 L143R; L1 Q124E_V133E)

change in median KD compared to wild type, -(log(KD design)-log(KD wt)) [1]: -0.21
Kd [2]: 0.25 nM
Substance: D3H44 H1L1 Fab heterodimer of LCCA Set # 9742 (H1 L143R; L1 Q124E_V133E_Q160M)

Change in median values of KD of h1|1 Fab heterodimer compared to wild type (-(log(KD design)-log(KD wt))) [16]: 0.34 log units
Kd [16]: 0.07 nM
Substance: D3H44 H1L1 Fab heterodimer of LCCA set 9741 (H1 L143R; L1 Q124E_V133E_Q160F)

Change in median values of KD of h1l1 Fab heterodimer compared to wild type (-(log(KD design)-log(KD wt))) [3]: -0.16
Kd [4]: 0.23 nM
Substance: D3H44 Fab heterodimer H1 L124R_A125R_H172T / L1 V133G_N137K_S174R_S176D

Change in median values of KD of h1l1 Fab heterodimer compared to wild type (-(log(KD design)-log(KD wt))) [3]: -0.13
Kd [4]: 0.21 nM
Substance: D3H44 Fab heterodimer H1 L124W_L143E_K145T_Q179E / L1 Q124R_V133A_S176T_T178R

change in median KD compared to wild type, -(log(KD design)-log(KD wt)) [1]: 0.05
Kd [2]: 0.14 nM
Substance: D3H44 H1L1 Fab heterodimer of LCCA Set # 9054 (H1 A139G_Q179K_V190A; L1 Q124E_L135W_Q160E_T180E)

Kd [11]: 0.34 nM
change in median KD compared to wild type, -(log(KD design)-log(KD wt)) [12]: -0.34
Substance: D3H44 Fab heterodimer, H1L1 of LCCA Sets # 9692, 9696, 9688, 9702 and 9700 (H1 L143E_K145T_Q179E_S188L; L1 Q124R_T178R)

Change in median values of KD of h1l1 Fab heterodimer compared to wild type (-(log(KD design)-log(KD wt))) [15]: 0.09
Kd [4]: 0.13 nM
Substance: D3H44 Fab heterodimer H1L1 of LCCA set 9188 (H1 L124E_L143D_K145M; L1 Q124K_V133G_S176R_T178R)

Kd [11]: 0.25 nM
change in median KD compared to wild type, -(log(KD design)-log(KD wt)) [12]: -0.21
Substance: D3H44 Fab heterodimer, H1L1 of LCCA Sets # 9567 and 9566 (H1 L124W_L143F; L1 V133A)

Kd [5]: 0.18 nM
Change in median values of KD of h1|1 Fab heterodimer compared to wild type (-(log(KD design)-log(KD wt))) [6]: -0.05
Substance: D3H44 Fab heterodimer, H1 Q39E_L143E_K145T / L1 Q38R_Q124R_Q160K_T178R (H1L1 Fab of LCCA Set # 9817)

— patent US11306156
